Test results as given in US20240327535A1 (EISAI R AND D MANAGEMENT, published 2024).
Where a chain is given by its changes, count along the chain named.

T1: extracellular domain of human BCMA (human, UniProt Q02223 1-54)
T1 construct: amine-linked to Octet AR2G tips; also called hsBCMA; BCMA (human)
T1 sequence: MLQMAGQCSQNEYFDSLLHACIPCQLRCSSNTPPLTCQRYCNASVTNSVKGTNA

B1: AB200-R1H26-R2Vk1 (Fab, V domains shown)
VH: QVQLVQSGAEVKKPGSSVKVSCKASGGSFSNYWMHWVRQAPGQGLEWMGATYRIHSDTFYNQKFKGRVTITADKSTSTAYMELSSLRSEDTAVYYCARGAIYHGYDVLDNWGQGTLVTVSS
VL: DIQMTQSPSSLSASVGDRVTITCRASQSISSYLNWYQQKPGKAPKLLIYAASSLQSGVPSRFSGSGSGTDFTLTISSLQPEDFATYYCQQFRKLPWSFGQGTKLEIKR
B2: AB200-R1H26-R2Vk17 (Fab, V domains shown)
VH: B1 VH
VL: B1 VL with L33I, F91Y, L94I
B3: AB200-R1H26-R2Vk14 (Fab, V domains shown)
VH: B1 VH
VL: B1 VL with L33I, F91Y, K93R
B4: AB200-R1H26-R2Vk16 (Fab, V domains shown)
VH: B1 VH
VL: B1 VL with L33I, K93R, S97T
B5: AB200-R1H26-R2Vk2 (Fab, V domains shown)
VH: B1 VH
VL: B1 VL with L33I
B6: AB200-R1H26-R2Vk15 (Fab, V domains shown)
VH: B1 VH
VL: B1 VL with L33I, F91Y, K93R, L94I, S97T
B7: AB200-R1H26-R2Vk18 (Fab, V domains shown)
VH: B1 VH
VL: B1 VL with L33I, L94I, S97T
B8: AB200-R1H26-R2Vk19 (Fab, V domains shown)
VH: B1 VH
VL: B1 VL with A51T, S53N, F91Y, K93R
B9: AB200-R1H26-R2Vk8 (Fab, V domains shown)
VH: B1 VH
VL: B1 VL with L33I, A51T, S53N, S56I
B10: AB200-R1H26-R2Vk43 (Fab, V domains shown)
VH: B1 VH
VL: B1 VL with L33I, A51T, S53N, L54I, L94I, S97T
B11: AB200-R1H26-R2Vk13 (Fab, V domains shown)
VH: B1 VH
VL: B1 VL with L94I, S97T
B12: AB200-R1H26-R2Vk20 (Fab, V domains shown)
VH: B1 VH
VL: B1 VL with A51T, S53N, F91Y, K93R, L94I, S97T
B13: AB200-R1H26-R2Vk6 (Fab, V domains shown)
VH: B1 VH
VL: B1 VL with L33I, A51T, S53N
B14: AB200-R1H26-R2Vk10 (Fab, V domains shown)
VH: B1 VH
VL: B1 VL with F91Y, K93R, L94I, S97T
B15: AB200-R1H26-R2Vk47 (Fab, V domains shown)
VH: B1 VH
VL: B1 VL with L33I, A51T, S53N, S56I, F91Y, L94I
B16: AB200-R1H26-R2Vk21 (Fab, V domains shown)
VH: B1 VH
VL: B1 VL with A51T, S53N, K93R, S97T
B17: AB200-R1H26-R2Vk40 (Fab, V domains shown)
VH: B1 VH
VL: B1 VL with L33I, A51T, S53N, L54I, F91Y, K93R, L94I, S97T
B18: AB200-R1H26-R2Vk29 (Fab, V domains shown)
VH: B1 VH
VL: B1 VL with A51T, S53N, S56I, F91Y, K93R
B19: AB200-R1H26-R2Vk25 (Fab, V domains shown)
VH: B1 VH
VL: B1 VL with A51T, S53N, L54I, F91Y, K93R, L94I, S97T
B20: AB200-R1H26-R2Vk26 (Fab, V domains shown)
VH: B1 VH
VL: B1 VL with A51T, S53N, L54I, K93R, S97T
B21: AB200-R1H26-R2Vk39 (Fab, V domains shown)
VH: B1 VH
VL: B1 VL with L33I, A51T, S53N, L54I, F91Y, K93R
B22: AB200-R1H26-R2Vk24 (Fab, V domains shown)
VH: B1 VH
VL: B1 VL with A51T, S53N, L54I, F91Y, K93R
B23: AB200-R1H26-R2Vk23 (Fab, V domains shown)
VH: B1 VH
VL: B1 VL with A51T, S53N, L94I, S97T
B24: AB200-R1H26-R2Vk28 (Fab, V domains shown)
VH: B1 VH
VL: B1 VL with A51T, S53N, L54I, L94I, S97T
B25: AB200-R1H26-R2Vk31 (Fab, V domains shown)
VH: B1 VH
VL: B1 VL with A51T, S53N, S56I, K93R, S97T
B26: AB200-R1H26-R2Vk27 (Fab, V domains shown)
VH: B1 VH
VL: B1 VL with A51T, S53N, L54I, F91Y, L94I
B27: AB200-R1H26-R2Vk5 (Fab, V domains shown)
VH: B1 VH
VL: B1 VL with A51T, S53N, S56I
B28: AB200-R1H26-R2Vk36 (Fab, V domains shown)
VH: B1 VH
VL: B1 VL with L33I, A51T, S53N, K93R, S97T
B29: AB200-R1H26-R2Vk37 (Fab, V domains shown)
VH: B1 VH
VL: B1 VL with L33I, A51T, S53N, F91Y, L94I
B30: AB200-R1H26-R2Vk35 (Fab, V domains shown)
VH: B1 VH
VL: B1 VL with L33I, A51T, S53N, F91Y, K93R, L94I, S97T
B31: AB200-R1H26-R2Vk34 (Fab, V domains shown)
VH: B1 VH
VL: B1 VL with L33I, A51T, S53N, F91Y, K93R
B32: AB200-R1H26-R2Vk9 (Fab, V domains shown)
VH: B1 VH
VL: B1 VL with F91Y, K93R
B33: AB200-R1H26-R2Vk30 (Fab, V domains shown)
VH: B1 VH
VL: B1 VL with A51T, S53N, S56I, F91Y, K93R, L94I, S97T
B34: AB200-R1H26-R2Vk12 (Fab, V domains shown)
VH: B1 VH
VL: B1 VL with F91Y, L94I
B35: AB200-R1H26-R2Vk46 (Fab, V domains shown)
VH: B1 VH
VL: B1 VL with L33I, A51T, S53N, S56I, K93R, S97T
B36: AB200-R1H26-R2Vk32 (Fab, V domains shown)
VH: B1 VH
VL: B1 VL with A51T, S53N, S56I, F91Y, L94I
B37: AB200-R1H26-R2Vk44 (Fab, V domains shown)
VH: B1 VH
VL: B1 VL with L33I, A51T, S53N, S56I, F91Y, K93R
B38: AB200-R1H26-R2Vk22 (Fab, V domains shown)
VH: B1 VH
VL: B1 VL with A51T, S53N, F91Y, L94I
B39: AB200-R1H26-R2Vk4 (Fab, V domains shown)
VH: B1 VH
VL: B1 VL with A51T, S53N, L54I
B40: AB200-R1H26-R2Vk42 (Fab, V domains shown)
VH: B1 VH
VL: B1 VL with L33I, A51T, S53N, L54I, F91Y, L94I
B41: AB200-R1H26-R2Vk38 (Fab, V domains shown)
VH: B1 VH
VL: B1 VL with L33I, A51T, S53N, L94I, S97T
B42: AB200-R1H26-R2Vk3 (Fab, V domains shown)
VH: B1 VH
VL: B1 VL with A51T, S53N
B43: AB200-R1H26-R2Vk41 (Fab, V domains shown)
VH: B1 VH
VL: B1 VL with L33I, A51T, S53N, L54I, K93R, S97T
B44: AB200-R1H26-R2Vk45 (Fab, V domains shown)
VH: B1 VH
VL: B1 VL with L33I, A51T, S53N, S56I, F91Y, K93R, L94I, S97T
B45: AB200-R1H26-R2Vk11 (Fab, V domains shown)
VH: B1 VH
VL: B1 VL with K93R, S97T
B46: AB200-R1H26-R2Vk48 (Fab, V domains shown)
VH: B1 VH
VL: B1 VL with L33I, A51T, S53N, S56I, L94I, S97T
B47: AB200-R1H26-R2Vk33 (Fab, V domains shown)
VH: B1 VH
VL: B1 VL with A51T, S53N, S56I, L94I, S97T
B48: AB200-R1H26-R2Vk7 (Fab, V domains shown)
VH: B1 VH
VL: B1 VL with L33I, A51T, S53N, L54I

Biological target: T1, extracellular domain of human BCMA
Experiment: Octet BLI; Fab 200 nM

Binder | Kd
B1 | 2.04 nM
B2 | 3.59 nM
B3 | 2.52 nM
B4 | 2.09 nM
B5 | 2.37 nM
B6 | 3.27 nM
B7 | 3.44 nM
B8 | 1.62 nM
B9 | 1.69 nM
B10 | 3.23 nM
B11 | 3.02 nM
B12 | 2.1 nM
B13 | 2.08 nM
B14 | 3.23 nM
B15 | 1.73 nM
B16 | 1.27 nM
B17 | 2.34 nM
B18 | 1.18 nM
B19 | 2.04 nM
B20 | 1.46 nM
B21 | 1.83 nM
B22 | 1.62 nM
B23 | 2.28 nM
B24 | 2.68 nM

Binder | Kd
B25 | 1.1 nM
B26 | 2.33 nM
B27 | 1.29 nM
B28 | 1.67 nM
B29 | 2.3 nM
B30 | 1.76 nM
B31 | 1.55 nM
B32 | 2.35 nM
B33 | 1.74 nM
B34 | 3.72 nM
B35 | 1.35 nM
B36 | 1.93 nM
B37 | 1.28 nM
B38 | 2.24 nM
B39 | 1.7 nM
B40 | 2.42 nM
B41 | 2.85 nM
B42 | 1.62 nM
B43 | 1.87 nM
B44 | 1.57 nM
B45 | 1.55 nM
B46 | 2.31 nM
B47 | 1.74 nM
B48 | 2.17 nM
